Patent US20230303719, “HUMANIZED 3E10 ANTIBODIES, VARIANTS, AND ANTIGEN BINDING FRAGMENTS THEREOF” (YALE UNIVERSITY, published 2023)

Legend:
humanized 3E10 V66 (CHO) = humanized 3E10 V66 (CHO) (synthetic construct, UniProt P01857; SEQ:1-446,SEQ:1-218); assay: BLI; 1:1 model; antibody on AHC2 sensor; ka 3.08E5, kdis 7.99E-4; conditions: tags: human Fc IgG; transiently expressed in CHO; chain copies: 2 heavy + 2 light (inferred); hairpin
[1] = biological target: 3E10-D31N IgG4 S228P/F234A/L235A/M252Y/S254T/T256E (synthetic construct, UniProt P01861; SEQ:1-443,SEQ:1-218); assay: BLI; 1:1 model; antibody on AHC2 sensor; RNA 62.5-500 nM; conditions: tags: human IgG4 Fc; chain copies: 2 heavy + 2 light (inferred); hairpin
[2] = biological target: 3E10-D31N IgG4 S228P/F234A/L235A/T307Q/N434A (synthetic construct, UniProt P01861; SEQ:1-443,SEQ:1-218); assay: as above; conditions: tags: human IgG4 Fc; chain copies: 2 heavy + 2 light (inferred); hairpin
[3] = biological target: 3E10-D31N IgG4 S228P/F234A/L235A (synthetic construct, UniProt P01861; SEQ:1-443,SEQ:1-218); assay: as above; conditions: tags: human IgG4 Fc; chain copies: 2 heavy + 2 light (inferred); hairpin
[4] = biological target: 3E10-D31N IgG4 S228P/F234A/L235A/H310Q (synthetic construct, UniProt P01861; SEQ:1-443,SEQ:1-218); assay: as above; conditions: tags: human IgG4 Fc; chain copies: 2 heavy + 2 light (inferred); hairpin
[5] = biological target: 3E10-D31N (chimeric, murine VH/VL); assay: as above; conditions: tags: human Fc IgG; chain copies: 2 heavy + 2 light (inferred); hairpin
[6] = biological target: 3E10-D31N (chimeric, murine VH/VL); assay: BLI; 1:1 model; antibody on AHC2 sensor; ka 2.29E5, kdis 4.76E-4; conditions: tags: human Fc IgG; chain copies: 2 heavy + 2 light (inferred); hairpin
[7] = biological target: humanized 3E10 V66 (HEK293) (synthetic construct, UniProt P01857; SEQ:1-446,SEQ:1-218); assay: BLI; 1:1 model; antibody on AHC2 sensor; ka 2.42E5, kdis 3.13E-4; conditions: tags: human Fc IgG; transiently expressed in HEK293; chain copies: 2 heavy + 2 light (inferred); hairpin
Sequence of humanized 3E10 V66 (HEK293) (P01857 other isoform, or with tags, fused parts or gaps, chain 1 of 2): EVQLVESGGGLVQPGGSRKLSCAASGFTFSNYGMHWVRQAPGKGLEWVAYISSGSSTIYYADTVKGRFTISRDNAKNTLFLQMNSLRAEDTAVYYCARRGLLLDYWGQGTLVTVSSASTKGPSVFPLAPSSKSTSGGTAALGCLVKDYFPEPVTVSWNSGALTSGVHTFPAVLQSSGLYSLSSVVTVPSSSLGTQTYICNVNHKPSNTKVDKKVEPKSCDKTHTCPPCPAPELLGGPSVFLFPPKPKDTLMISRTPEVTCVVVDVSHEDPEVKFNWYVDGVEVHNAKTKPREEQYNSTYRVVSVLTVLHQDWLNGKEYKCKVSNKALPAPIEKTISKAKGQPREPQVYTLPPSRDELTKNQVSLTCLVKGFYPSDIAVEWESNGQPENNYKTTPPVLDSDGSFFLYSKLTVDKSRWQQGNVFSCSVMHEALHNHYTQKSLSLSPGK
Sequence of humanized 3E10 V66 (HEK293) (chain, as listed by the source, chain 2 of 2): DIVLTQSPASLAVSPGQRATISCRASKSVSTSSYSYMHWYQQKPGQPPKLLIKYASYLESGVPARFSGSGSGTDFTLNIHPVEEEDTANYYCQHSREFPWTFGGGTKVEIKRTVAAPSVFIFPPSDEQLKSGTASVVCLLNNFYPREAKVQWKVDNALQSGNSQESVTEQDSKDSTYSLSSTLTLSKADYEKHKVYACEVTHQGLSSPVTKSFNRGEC

Sequence of humanized 3E10 V66 (CHO) (P01857 other isoform, or with tags, fused parts or gaps, chain 1 of 2): as the sequence (P01857 other isoform, or with tags, fused parts or gaps, chain 1 of 2) above
Sequence of humanized 3E10 V66 (CHO) (chain, as listed by the source, chain 2 of 2): as the sequence (chain, as listed by the source, chain 2 of 2) above

B1: 3p-hpRNA RIG-I agonist (89 nt) (ssRNA)
RNA: GGAGCAAAAGCAGGGUGACAAAGACAUAAUGGAUCCAAACACUGUGUCAAGCUUUCAGGUAGAUUGCUUUCUUUGGCAUGUCCGCAAAC
modifications: 5'-triphosphate
Q: Which Kd (humanized 3E10 V66 (CHO)) does the source give for B1 here?
A: 2.6 nM

Q: What about the Kd [1] of the same binder?
A: 5 nM

Q: And the Kd [2]?
A: 12.7 nM

Q: What about the Kd [3] of the same binder?
A: 3.33 nM

Q: And the Kd [4]?
A: 6.58 nM

Q: What about the Kd [5] of the same binder?
A: 10.5 nM

Q: And the Kd [6]?
A: 2.08 nM

Q: What about the Kd [7] of the same binder?
A: 1.3 nM
